Molecular target: the molecule itself
Assay: Western blot of cell lysate under non-denatured or denatured conditions

B1: Flag-EGFP-tagged SPESP1 (equatorial segment protein 1) expressed in CHO-K1 cells (natural protein, mouse, UniProt Q9D5A0 19-399, looked up)
chain: YPTITVLPDEEQNLNHYVHILQNLIMSVPTKEQDLGKKLSSSRTVDSAEPRSLASKVLLTPGLVSAQDVTPESDVLIRPVDETTNSRTRGFTLRRRRTQSTAFWSIRPNNISVVLRTEEPFIEKEPEPELESSRLPTEPEPELEPEPEPVAESRQMSEPEEELVTSTTPNKELTGTSRISSMATQPANTQATRITVTVKTTSTMDVSTDSEDVPQLSGQSEIPSAEDLPGRHSLNTRHEDILKKISNINAEIQQGLLGGNNSPEFKEFIKASREHLKRSLALAAAAEHKLEQMYGSNVFPEGRTSDPDNDMEMIINMLYNSRSKLSDYFNIKRVPSELREKASVVNAELRKILCVDQVEMQSLIKKLLSNNMKILNILNVP
modifications: O-GalNAc glycans (VVA-positive on blot); sites on this construct not stated
stoichiometry N: 2

— PMC11920050 (Nature Communications, 2025)
